Data reported in US20220064644A1 (TAIPEI MEDICAL UNIVERSITY, published 2022).

T1: GST-Q43-HTTEX1, P42858
T1 chain: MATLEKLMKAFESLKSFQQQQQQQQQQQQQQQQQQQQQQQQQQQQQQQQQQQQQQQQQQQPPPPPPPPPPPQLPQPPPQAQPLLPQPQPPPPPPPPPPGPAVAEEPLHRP


How the values were obtained:
[1] = biological target: ATXN3-84Q (mutant ATXN3), P54252
[2] = biological target: T1, GST-Q43-HTTEX1, P42858
[3] = biological target: ATXN3-28Q (normal ATXN3), P54252
[4] = biological target: T2, GST protein (UniProt P08515 1-218 = GST); assay: GST pull-down with purified recombinant proteins, Western blot
T2 construct: Negative control in the pull-down assays
T2 sequence (P08515 whole entry): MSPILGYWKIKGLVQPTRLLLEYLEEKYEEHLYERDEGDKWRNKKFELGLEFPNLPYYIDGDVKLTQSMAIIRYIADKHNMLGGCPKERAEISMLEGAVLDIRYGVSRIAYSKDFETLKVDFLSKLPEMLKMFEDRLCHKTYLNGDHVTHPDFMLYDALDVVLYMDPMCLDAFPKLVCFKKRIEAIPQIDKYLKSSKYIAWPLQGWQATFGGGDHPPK
Description: The indicated lysates (1 mg) were incubated with purified recombinant GST or GST-Q₂₅-HTTEX1 protein as indicated for 60 min at 4° C. to allow complex formation. GST served as a negative control. The protein complexes were analyzed by Western blotting. The amount of PIAS1-domain-deletion mutant was normalized to the corresponding bait (GST-Q₂₅-HTTEX1 protein). The data are presented as the mean±SEM (N=4). **p<0.001 and ****p<0.0001 by one-way ANOVA. (FIG. 12 (C)) Purified recombinant 6×His-S/T rich region only of PIAS1 was incubated with purified recombinant GST or GST-Q₂₅-HTTEX1 protein for 60 min at 4° C. GST served as a negative control. The protein complexes were analyzed by Western blotting. The red arrowhead and yellow arrowhead mark the GST-Q₂₅-HTTEX1 and GST proteins, respectively. The data shown here represent three independent experiments.
GST Pull-down Assay. Cell lysates were harvested using a nondenaturing lysis buffer (137 mM NaCl, 1% NP-40, 20 mM Tris pH 8.0, and 1 mM EDTA) containing a protease inhibitor cocktail and 1× phosphatase inhibitor cocktail (Roche) and subjected to rotation at 4° C. for 1 hr. […] The bound proteins were analyzed with SDS-PAGE and Western blotting. […]

ATXN3-84Q (mutant ATXN3), P54252, sequence (P54252 whole entry, looked up, change not shown, tested part not stated): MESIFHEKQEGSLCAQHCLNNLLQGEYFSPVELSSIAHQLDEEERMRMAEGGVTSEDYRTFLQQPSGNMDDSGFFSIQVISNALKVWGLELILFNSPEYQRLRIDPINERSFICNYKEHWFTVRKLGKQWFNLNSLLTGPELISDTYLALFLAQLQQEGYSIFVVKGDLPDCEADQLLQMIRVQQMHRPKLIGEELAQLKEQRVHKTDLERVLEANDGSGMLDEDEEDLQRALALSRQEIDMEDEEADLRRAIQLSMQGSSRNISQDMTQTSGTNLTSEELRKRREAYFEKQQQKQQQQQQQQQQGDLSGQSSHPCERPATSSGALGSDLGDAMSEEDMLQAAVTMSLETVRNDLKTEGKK
ATXN3-28Q (normal ATXN3), P54252, sequence (P54252 whole entry, looked up, tested part not stated): as the sequence (P54252 whole entry, looked up, change not shown, tested part not stated) above

| Binder | in vitro SUMOylation assay (SUMO3 conjugation of ATXN3) [1] | in vitro SUMOylation of GST-Q43-HTTEX1 (Western blot shift) [2] | in vitro SUMOylation assay (SUMO3 conjugation of ATXN3) [3] | binding result [4] |
| --- | --- | --- | --- | --- |
| wild-type PIAS1 (Homo sapiens protein inhibitor of activated STAT 1) (protein) MADSAELKQMVMSLRVSELQVLLGYAGRNKHGRKHELLTKALHLLKAGCSPAVQMKIKELYRRRFPQKIMTPADLSIPNVHSSPMPATLSPSTIPQLTYDGHPASSPLLPVSLLGPKHELELPHLTSALHPVHPDIKLQKLPFYDLLDELIKPTSLASDNSQRFRETCFAFALTPQQVQQISSSMDISGTKCDFTVQVQLRFCLSETSCPQEDHFPPNLCVKVNTKPCSLPGYLPPTKNGVEPKRPSRPINITSLVRLSTTVPNTIVVSWTAEIGRNYSMAVYLVKQLSSTVLLQRLRAKGIRNPDHSRALIKEKLTADPDSEIATTSLRVSLLCPLGKMRLTIPCRALTCSHLQCFDATLYIQMNEKKPTWVCPVCDKKAPYEHLIIDGLFMEILKYCTDCDEIQFKEDGTWAPMRSKKEVQEVSASYNGVDGCLSSTLEHQVASHHQSSNKNKKVEVIDLTIDSSSDEEEEEPSAKRTCPSLSPTSPLNNKGILSLPHQASPVSRTPSLPAVDTSYINTSLIQDYRHPFHMTPMPYDLQGLDFFPFLSGDNQHYNTSLLAAAAAAVSDDQDLLHSSRFFPYTSSQMFLDQLSAGGSTSLPTTNGSSSGSNSSLVSSNSLRESHSHTVTNRSSTDTASIFGIIPDIISLD | When PIAS1 and ATP (ATP is necessary for SUMOylation activation) participated the reaction process, formed ATXN3 SUMO conjugation (FIG. 6 (B)), both normal and mutant ATXN3 | The addition of PIAS1^WT enhanced the SUMOylation of GST-Q43-HTTEX1 | When PIAS1 and ATP (ATP is necessary for SUMOylation activation) participated the reaction process, formed ATXN3 SUMO conjugation (FIG. 6 (B)), both normal and mutant ATXN3 | – |
| PIAS1 gene variant 3 (PIAS1^S510G) (protein) MADSAELKQMVMSLRVSELQVLLGYAGRNKHGRKHELLTKALHLLKAGCSPAVQMKIKELYRRRFPQKIMTPADLSIPNVHSSPMPATLSPSTIPQLTYDGHPASSPLLPVSLLGPKHELELPHLTSALHPVHPDIKLQKLPFYDLLDELIKPTSLASDNSQRFRETCFAFALTPQQVQQISSSMDISGTKCDFTVQVQLRFCLSETSCPQEDHFPPNLCVKVNTKPCSLPGYLPPTKNGVEPKRPSRPINITSLVRLSTTVPNTIVVSWTAEIGRNYSMAVYLVKQLSSTVLLQRLRAKGIRNPDHSRALIKEKLTADPDSEIATTSLRVSLLCPLGKMRLTIPCRALTCSHLQCFDATLYIQMNEKKPTWVCPVCDKKAPYEHLIIDGLFMEILKYCTDCDEIQFKEDGTWAPMRSKKEVQEVSASYNGVDGCLSSTLEHQVASHHQSSNKNKKVEVIDLTIDSSSDEEEEEPSAKRTCPSLSPTSPLNNKGILSLPHQASPVSRTPGLPAVDTSYINTSLIQDYRHPFHMTPMPYDLQGLDFFPFLSGDNQHYNTSLLAAAAAAVSDDQDLLHSSRFFPYTSSQMFLDQLSAGGSTSLPTTNGSSSGSNSSLVSSNSLRESHSHTVTNRSSTDTASIFGIIPDIISLD | – | Compared with PIAS1^WT, PIAS1^S510G induced a much lower level of SUMOylation of GST-Q43HTTEX1 | – | – |
| 6xHis-S/T rich region only of PIAS1 (other, human, UniProt O75925 480-651, looked up, domain: S/T rich region; Purified recombinant protein from BL21 cells; also called S/T only; S/T-only PIAS1; not shown: 6xHis tag from the pRSETA-6xHis vector) TCPSLSPTSPLNNKGILSLPHQASPVSRTPSLPAVDTSYINTSLIQDYRHPFHMTPMPYDLQGLDFFPFLSGDNQHYNTSLLAAAAAAVSDDQDLLHSSRFFPYTSSQMFLDQLSAGGSTSLPTTNGSSSGSNSSLVSSNSLRESHSHTVTNRSSTDTASIFGIIPDIISLD | – | – | – | no binding |
